{"source": "patent US20190083491", "about": "“SMALL MOLECULES INHIBITORS OF RAD51” (The University of Chicago, published 2019)", "binders": {"B1": {"name": "Alexa488-oligo-dT45 (ssDNA)", "DNA": "TTTTTTTTTTTTTTTTTTTTTTTTTTTTTTTTTTTTTTTTTTTTT"}}, "biological_target": "RAD51 (Homo sapiens, UniProt Q06609 Q06609:2-339)", "sequence (Q06609 2-339, one chain of several)": "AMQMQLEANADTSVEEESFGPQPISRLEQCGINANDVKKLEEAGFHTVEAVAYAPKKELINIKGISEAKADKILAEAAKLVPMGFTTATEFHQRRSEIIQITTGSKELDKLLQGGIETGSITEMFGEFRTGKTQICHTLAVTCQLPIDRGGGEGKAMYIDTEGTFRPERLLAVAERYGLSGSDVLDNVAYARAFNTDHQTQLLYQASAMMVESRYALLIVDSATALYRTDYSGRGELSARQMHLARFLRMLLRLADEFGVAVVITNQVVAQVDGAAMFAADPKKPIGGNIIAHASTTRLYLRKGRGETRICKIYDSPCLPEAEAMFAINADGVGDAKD", "assay": "FP; 0.2 uM RAD51, 2.22 nM ssDNA, 2 mM ATP, 10 mM MgCl2, 30 mM NaCl, pH 7.5, 37 C; binding used to measure compound effects, no Kd given", "conditions": "tags: human RAD51, purified as previously described (source inferred); label: 5'-Alexa488", "method": "In each well, RAD51 protein was combined with reaction buffer and varying concentrations of compound in DMSO in an initial volume of 40 μl and incubated at 37° C. for 40 minutes. […] The final reaction contained 4% DMSO, 0.2 μM RAD51, 30 mM NaCl, 2% glycerol, and 2.22 nM ssDNA substrate.", "data": [{"binder": "B1", "values": [{"measurement": "binding result", "result": "binds"}]}]}
